Experimental data as given in patent US20020147999A1.

How the values were obtained:
Experiment in all cases: cell-based or functional assay
[1] = molecular target: p-tau (phosphorylated microtubule-associated protein tau), mouse, endogenous in Neuro-2a cells and mouse brain (mouse) (UniProt P10637)
[2] = molecular target: p-NF-H (phosphorylated neurofilament protein of high molecular weight), mouse, endogenous in Neuro-2a cells (mouse) (UniProt P19246)
[3] = molecular target: apoE cleavage enzyme (chymotrypsin-like serine protease; in mouse brain lysate or roughly/partially purified)

Chain of p-NF-H (phosphorylated neurofilament protein of high molecular weight), mouse, endogenous in Neuro-2a cells (mouse) (P19246 whole entry): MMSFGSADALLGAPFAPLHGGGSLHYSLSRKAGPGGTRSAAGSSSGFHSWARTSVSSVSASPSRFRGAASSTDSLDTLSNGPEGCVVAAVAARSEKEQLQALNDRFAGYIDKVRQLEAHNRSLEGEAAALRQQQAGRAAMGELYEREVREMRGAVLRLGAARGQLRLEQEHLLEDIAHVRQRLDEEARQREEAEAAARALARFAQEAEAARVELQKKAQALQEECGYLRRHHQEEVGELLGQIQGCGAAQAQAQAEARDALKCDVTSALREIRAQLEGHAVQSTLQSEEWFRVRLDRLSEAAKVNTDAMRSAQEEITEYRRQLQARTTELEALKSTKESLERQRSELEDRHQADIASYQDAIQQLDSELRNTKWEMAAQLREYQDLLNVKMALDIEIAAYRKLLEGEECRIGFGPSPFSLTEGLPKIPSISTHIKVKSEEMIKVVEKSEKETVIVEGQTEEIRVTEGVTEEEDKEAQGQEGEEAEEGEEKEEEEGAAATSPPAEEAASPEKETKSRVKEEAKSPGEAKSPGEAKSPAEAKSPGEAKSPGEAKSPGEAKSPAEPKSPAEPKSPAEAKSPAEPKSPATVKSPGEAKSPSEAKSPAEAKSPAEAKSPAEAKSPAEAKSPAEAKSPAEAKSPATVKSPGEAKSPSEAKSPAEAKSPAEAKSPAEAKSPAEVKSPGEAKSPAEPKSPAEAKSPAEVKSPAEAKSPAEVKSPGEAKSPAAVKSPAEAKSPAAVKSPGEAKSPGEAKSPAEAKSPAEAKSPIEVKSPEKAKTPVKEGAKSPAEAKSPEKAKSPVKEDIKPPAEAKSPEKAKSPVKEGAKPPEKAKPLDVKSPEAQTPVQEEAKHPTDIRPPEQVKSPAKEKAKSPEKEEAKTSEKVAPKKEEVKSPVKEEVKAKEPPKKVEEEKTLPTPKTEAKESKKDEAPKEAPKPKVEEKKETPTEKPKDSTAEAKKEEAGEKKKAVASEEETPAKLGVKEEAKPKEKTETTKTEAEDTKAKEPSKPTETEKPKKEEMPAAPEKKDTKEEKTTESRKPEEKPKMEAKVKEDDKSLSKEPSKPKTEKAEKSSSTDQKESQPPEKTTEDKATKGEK
Chain of p-tau (phosphorylated microtubule-associated protein tau), mouse, endogenous in Neuro-2a cells and mouse brain (mouse) (P10637 other isoform, or with tags, fused parts or gaps limits assumed): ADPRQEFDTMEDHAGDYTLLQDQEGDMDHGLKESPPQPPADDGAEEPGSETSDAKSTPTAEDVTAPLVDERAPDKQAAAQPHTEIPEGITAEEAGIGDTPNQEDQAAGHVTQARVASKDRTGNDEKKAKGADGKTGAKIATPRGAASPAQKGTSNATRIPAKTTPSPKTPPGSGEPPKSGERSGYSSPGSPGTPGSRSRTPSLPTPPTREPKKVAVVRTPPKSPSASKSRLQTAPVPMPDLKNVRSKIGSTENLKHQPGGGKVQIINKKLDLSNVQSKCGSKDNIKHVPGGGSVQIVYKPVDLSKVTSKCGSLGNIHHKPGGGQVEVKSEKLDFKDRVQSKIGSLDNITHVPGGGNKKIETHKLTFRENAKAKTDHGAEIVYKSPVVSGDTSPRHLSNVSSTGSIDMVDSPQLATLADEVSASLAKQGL

transfected cells displaying the intracellular filamentous inclusions [1] [%] | transfected cells displaying the intracellular filamentous inclusions [2] [%] | inhibition of apoE cleavage enzyme activity (chromogenic assay, 1 mM Ala-Ala-Pro-Phe-p-nitroanilide; 7 µM apoE4) [3] [%] | Substance
32 | 32 | – | apoE3(Δ272-299), expressed in transfected cells (pFLAG-CMV-3 vector, secretory pathway, N-terminal FLAG) (from UniProt P02649 19-289)
78 | 78 | – | apoE4(Δ272-299), expressed in transfected cells (pFLAG-CMV-3 vector, secretory pathway, N-terminal FLAG) (from UniProt P02649 19-289)
– | – | 89 | purified human apoE4 (full-length) (from UniProt P02649 19-317)
